The supplement of paper PMC9112550, “Optimization of the antimicrobial peptide Bac7 by deep mutational scanning” (BMC Biology, 2022)

What follows are sequences tested on Escherichia coli TOP10 (assay: shrunken log2 fold change of peptide-encoding DNA abundance (4.5 h post-induction vs induction); higher = less antimicrobial activity (less host growth inhibition)). Settings: time post-induction: 4.5 h; library: site-saturation at positions 5, 18, 19, 20.
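Also: peptides expressed intracellularly from a pBAD plasmid library in pooled LB shake-flask culture, induced with 0.3% L-arabinose, DNA abundance read by NGS, three biological replicates, DESeq2 with apeglm shrinkage.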

| Sequence | shrunken log2 fold change |
| --- | --- |
| RRIRQRPPRLPRPRPRPWAAPRP | 0.0922 |
| RRIRVRPPRLPRPRPRPHPWPRP | 0.0927 |
| RRIRMRPPRLPRPRPRPQHVPRP | 0.0365 |
| RRIRGRPPRLPRPRPRPYTWPRP | 0.0845 |
| RRIRCRPPRLPRPRPRPKADPRP | -0.052 |
| RRIRTRPPRLPRPRPRPAMTPRP | 0.126 |
| RRIRPRPPRLPRPRPRPTQMPRP | 0.395 |
| RRIRQRPPRLPRPRPRPAWSPRP | 0.183 |
| RRIRYRPPRLPRPRPRPFRVPRP | -0.0371 |
| RRIRARPPRLPRPRPRPFASPRP | 0.0388 |
| RRIRRRPPRLPRPRPRPNSDPRP | -0.17 |
| RRIRARPPRLPRPRPRPGISPRP | 0.337 |
| RRIRIRPPRLPRPRPRPGDLPRP | -0.223 |
| RRIRIRPPRLPRPRPRPDTQPRP | -0.167 |
| RRIRQRPPRLPRPRPRPRIWPRP | 0.123 |
| RRIRWRPPRLPRPRPRPKMWPRP | 0.737 |
| RRIRDRPPRLPRPRPRPDCAPRP | 1.41 |
| RRIRDRPPRLPRPRPRPVRSPRP | 0.155 |
| RRIRSRPPRLPRPRPRPVVTPRP | 0.021 |
| RRIRSRPPRLPRPRPRPEHYPRP | -0.132 |
| RRIRERPPRLPRPRPRPTNHPRP | -0.472 |
| RRIRERPPRLPRPRPRPPQYPRP | -0.517 |
| RRIRKRPPRLPRPRPRPDYDPRP | 0.143 |

| Sequence | shrunken log2 fold change |
| --- | --- |
| RRIRNRPPRLPRPRPRPLPIPRP | -0.299 |
| RRIRFRPPRLPRPRPRPMQVPRP | -0.228 |
| RRIRLRPPRLPRPRPRPFEDPRP | -0.193 |
| RRIRWRPPRLPRPRPRPCGHPRP | 0.108 |
| RRIRCRPPRLPRPRPRPTRHPRP | 0.161 |
| RRIRFRPPRLPRPRPRPQCWPRP | 0.0388 |
| RRIRLRPPRLPRPRPRPLACPRP | -0.454 |
| RRIRIRPPRLPRPRPRPIVEPRP | 0.0786 |
| RRIRQRPPRLPRPRPRPYLPPRP | -0.0206 |
| RRIRSRPPRLPRPRPRPQNYPRP | -0.322 |
| RRIRLRPPRLPRPRPRPLGAPRP | 0.387 |
| RRIRKRPPRLPRPRPRPSWMPRP | 0.93 |
| RRIRTRPPRLPRPRPRPPVDPRP | 0.244 |
| RRIRLRPPRLPRPRPRPVVGPRP | 0.103 |
| RRIRRRPPRLPRPRPRPLFWPRP | 0.472 |
| RRIRARPPRLPRPRPRPIAFPRP | 0.222 |
| RRIRIRPPRLPRPRPRPLMLPRP | -0.704 |
| RRIRTRPPRLPRPRPRPMQMPRP | 0.39 |
| RRIRNRPPRLPRPRPRPQKRPRP | -0.034 |
| RRIRPRPPRLPRPRPRPVAMPRP | 0.0478 |
| RRIRLRPPRLPRPRPRPPKLPRP | 0.252 |
| RRIRCRPPRLPRPRPRPSCMPRP | -0.313 |
| RRIRFRPPRLPRPRPRPWPYPRP | 0.0261 |

| Sequence | shrunken log2 fold change |
| --- | --- |
| RRIRQRPPRLPRPRPRPRNSPRP | -0.0108 |
| RRIRWRPPRLPRPRPRPNLFPRP | 0.144 |
| RRIRDRPPRLPRPRPRPVYAPRP | -0.025 |
| RRIRFRPPRLPRPRPRPMCIPRP | -0.075 |
| RRIRKRPPRLPRPRPRPVKCPRP | 0.105 |
| RRIRARPPRLPRPRPRPWRPPRP | 0.348 |
| RRIRARPPRLPRPRPRPPIYPRP | 0.0905 |
| RRIRQRPPRLPRPRPRPHAIPRP | -0.562 |
| RRIRWRPPRLPRPRPRPKVAPRP | 1.16 |
| RRIRFRPPRLPRPRPRPTVSPRP | -0.00542 |
| RRIRYRPPRLPRPRPRPQKHPRP | -0.777 |
| RRIRLRPPRLPRPRPRPKMCPRP | -0.0794 |
| RRIRLRPPRLPRPRPRPFIHPRP | -0.807 |
| RRIRERPPRLPRPRPRPYDAPRP | 0.835 |
| RRIRIRPPRLPRPRPRPLWYPRP | -0.551 |
| RRIRDRPPRLPRPRPRPDWNPRP | -0.0851 |
| RRIRVRPPRLPRPRPRPICGPRP | 0.0607 |
| RRIRPRPPRLPRPRPRPIWEPRP | 0.0926 |
| RRIRDRPPRLPRPRPRPCHHPRP | -0.0426 |
| RRIRYRPPRLPRPRPRPSMFPRP | -1.02 |
| RRIRARPPRLPRPRPRPINEPRP | -0.0644 |
| RRIRERPPRLPRPRPRPDMSPRP | -0.064 |
| RRIRWRPPRLPRPRPRPWQLPRP | -0.18 |

| Sequence | shrunken log2 fold change |
| --- | --- |
| RRIRVRPPRLPRPRPRPMFNPRP | -0.4 |
| RRIRNRPPRLPRPRPRPYGWPRP | -0.012 |
| RRIRGRPPRLPRPRPRPYMLPRP | -0.0745 |
| RRIRLRPPRLPRPRPRPTHRPRP | 0.101 |
| RRIRPRPPRLPRPRPRPNAIPRP | -0.0755 |
| RRIRERPPRLPRPRPRPIGFPRP | -0.134 |
| RRIRRRPPRLPRPRPRPLFDPRP | 0.136 |
| RRIRNRPPRLPRPRPRPPTMPRP | -0.126 |
| RRIRWRPPRLPRPRPRPYLRPRP | -0.37 |
| RRIRLRPPRLPRPRPRPGKGPRP | -0.0192 |
| RRIRPRPPRLPRPRPRPVIGPRP | 0.0389 |
| RRIRTRPPRLPRPRPRPKVGPRP | 0.2 |
| RRIRWRPPRLPRPRPRPGAEPRP | 1.17 |
| RRIRPRPPRLPRPRPRPFETPRP | -0.117 |
| RRIRARPPRLPRPRPRPGYIPRP | -0.383 |
| RRIRWRPPRLPRPRPRPCRLPRP | 0.0377 |
| RRIRDRPPRLPRPRPRPNFQPRP | 0.151 |
| RRIRARPPRLPRPRPRPIFKPRP | -0.0373 |
| RRIRTRPPRLPRPRPRPSLSPRP | 0.00222 |
| RRIRYRPPRLPRPRPRPMGMPRP | -0.188 |
| RRIRFRPPRLPRPRPRPTNMPRP | -0.712 |
| RRIRHRPPRLPRPRPRPKHCPRP | -0.447 |
